Results on one protein are retold here after PMC12931234, “Allosteric Modulation of Pathological Ataxin‐3 Aggregation: A Path to Spinocerebellar Ataxia Type‐3 Therapies” (Advanced Science, 2025).

The data set concerns the molecule itself. Description: thioflavin T fluorescence aggregation assay; 5 µM protein (monomer peak from Superose 12), 30 µM ThT, 37 °C, 20 mM HEPES pH 7.5, 150 mM NaCl, 1 mM DTT; without or with CLR01 or CLR03; amyloid self-assembly.

B1: Truncated ataxin-3 variant comprising the N-terminal globular Josephin domain (Atx3 JD) (domain or fragment, human, UniProt P54252-2 1-180, looked up)
chain: MESIFHEKQEGSLCAQHCLNNLLQGEYFSPVELSSIAHQLDEEERMRMAEGGVTSEDYRTFLQQPSGNMDDSGFFSIQVISNALKVWGLELILFNSPEYQRLRIDPINERSFICNYKEHWFTVRKLGKQWFNLNSLLTGPELISDTYLALFLAQLQQEGYSIFVVKGDLPDCEADQLLQM
notes: Ataxin-3 (Atx3), human, UniProt P54252-2, N-terminal globular Josephin domain; printed MW 23 767.87 Da; The text names residues up to R182; NMR models of JD: PDB 1YZB and 2AGA (cited); also called isolated JD; not shown: His6, N-terminal, kept
B1: the binding result is reported as “binds”.
